Source: PMC10786891, “Massively parallel profiling of RNA-targeting CRISPR-Cas13d”
Changes are numbered by the printed parent chain. Names may count otherwise.

T1: EsCas13d, nuclease-dead (Eubacterium siraeum, UniProt B0MS50, R295A;H300A;R849A;H854A)
T1 sequence: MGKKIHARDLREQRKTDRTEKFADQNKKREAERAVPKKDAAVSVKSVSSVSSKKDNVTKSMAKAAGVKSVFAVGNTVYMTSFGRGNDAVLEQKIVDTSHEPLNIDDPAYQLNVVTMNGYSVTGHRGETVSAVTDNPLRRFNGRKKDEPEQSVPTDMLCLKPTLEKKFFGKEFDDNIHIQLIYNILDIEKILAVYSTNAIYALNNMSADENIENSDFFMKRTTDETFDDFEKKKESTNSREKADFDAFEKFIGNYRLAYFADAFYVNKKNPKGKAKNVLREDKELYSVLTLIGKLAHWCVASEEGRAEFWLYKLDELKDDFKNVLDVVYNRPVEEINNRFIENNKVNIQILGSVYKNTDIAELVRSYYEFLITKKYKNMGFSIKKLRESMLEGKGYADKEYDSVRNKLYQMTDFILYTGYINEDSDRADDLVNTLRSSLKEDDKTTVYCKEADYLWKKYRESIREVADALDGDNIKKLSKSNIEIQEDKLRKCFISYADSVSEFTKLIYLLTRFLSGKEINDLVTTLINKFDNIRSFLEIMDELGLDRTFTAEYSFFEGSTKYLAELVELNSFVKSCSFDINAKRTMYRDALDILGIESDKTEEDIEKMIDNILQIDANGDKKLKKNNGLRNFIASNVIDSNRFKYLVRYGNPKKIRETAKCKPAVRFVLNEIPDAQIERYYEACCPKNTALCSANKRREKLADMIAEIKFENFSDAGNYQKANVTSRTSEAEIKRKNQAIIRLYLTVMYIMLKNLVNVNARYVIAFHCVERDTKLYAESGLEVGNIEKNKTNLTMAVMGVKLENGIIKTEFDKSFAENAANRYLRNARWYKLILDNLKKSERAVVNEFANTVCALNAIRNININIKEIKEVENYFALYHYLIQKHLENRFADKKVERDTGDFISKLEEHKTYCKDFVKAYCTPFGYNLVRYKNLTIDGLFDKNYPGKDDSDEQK

B1: target 1 insC 3' of 17,insU 3' of 2 (mixed)
RNA 1: CACCCGUGCAAAAAUGCAGGGGUCUAAAACUGAGCGGAUAACCUCUCUAUGG
RNA 2: GGGAAUGGAUCCACAUCUACGAAUUCGUACCAUAGCAGAGGUUAUCCGCUCUACCGAGAUCGGAAGAGCACACGU
B2: target 1 insG 3' of 3,insC 3' of 1 (mixed)
RNA 1: B1 RNA 1
RNA 2: GGGAAUGGAUCCACAUCUACGAAUUCGUACCAUAGAGAGGUUAUCCGCUGCACCCGAGAUCGGAAGAGCACACGU
B3: target 1 insA 3' of 13,insG 3' of 2 (mixed)
RNA 1: B1 RNA 1
RNA 2: B1 RNA 2 with C36A, A37G, G38A, A39G, G40A, U52G
B4: target 1 C2U,G5A (mixed)
RNA 1: B1 RNA 1
RNA 2: GGGAAUGGAUCCACAUCUACGAAUUCGUACCAUAGAGAGGUUAUCCACUUACCGAGAUCGGAAGAGCACACGU
B5: target 3 insA 3' of 8,insA 3' of 3 (mixed)
RNA 1: CACCCGUGCAAAAUUGCAGGGGUCUAAAACGACCUGAAUAUUUCAGAUCAAA
RNA 2: GGGAAUGGAUCCACAUCUACGAAUUCGUUUUUGAUCUGAAAUAUAUCAGGAUCUGCAGAUCGGAAGAGCACACGU
B6: target 3 complement block 18-20 (mixed)
RNA 1: B5 RNA 1
RNA 2: GGGAAUGGAUCCACAUCUACGAAUUCGUUUUACUUCUGAAAUAUUCAGGUCUGCAGAUCGGAAGAGCACACGU
B7: target 3 C1A,C16U (mixed)
RNA 1: B5 RNA 1
RNA 2: B6 RNA 2 with A32U, C33G, U34A, C36U, C51A
B8: target 3 U2A,U22C (mixed)
RNA 1: B5 RNA 1
RNA 2: B6 RNA 2 with U30C, A32U, C33G, U34A, U50A
B9: target 3 A9G,U22C (mixed)
RNA 1: B5 RNA 1
RNA 2: B6 RNA 2 with U30C, A32U, C33G, U34A, A43G
B10: target 3 C1U,U2A (mixed)
RNA 1: B5 RNA 1
RNA 2: B6 RNA 2 with A32U, C33G, U34A, U50A, C51U
B11: target 3 insC 3' of 22,insA 3' of 22 (mixed)
RNA 1: B5 RNA 1
RNA 2: GGGAAUGGAUCCACAUCUACGAAUUCGUUUCAUUGAUCUGAAAUAUUCAGGUCUGCAGAUCGGAAGAGCACACGU
B12: target 3 C16U (mixed)
RNA 1: B5 RNA 1
RNA 2: B6 RNA 2 with A32U, C33G, U34A, C36U
B13: target 3 del4,del8 (mixed)
RNA 1: B5 RNA 1
RNA 2: GGGAAUGGAUCCACAUCUACGAAUUCGUUUUUGAUCUGAAAUAUCAGUCUGCAGAUCGGAAGAGCACACGU
B14: target 3 A13G,U22G (mixed)
RNA 1: B5 RNA 1
RNA 2: B6 RNA 2 with U30G, A32U, C33G, U34A, A39G
B15: target 3 U21A,U22A (mixed)
RNA 1: B5 RNA 1
RNA 2: B6 RNA 2 with U30A, U31A, A32U, C33G, U34A
B16: target 3 G3U,U8A (mixed)
RNA 1: B5 RNA 1
RNA 2: B6 RNA 2 with A32U, C33G, U34A, U44A, G49U
B17: target 3 insC 3' of 13,insU 3' of 4 (mixed)
RNA 1: B5 RNA 1
RNA 2: B5 RNA 2 with A40C, U42A, A43U, U44A, A45U, G50U, A51G
B18: target 3 insA 3' of 6,insC 3' of 5 (mixed)
RNA 1: B5 RNA 1
RNA 2: B5 RNA 2 with A45U, U46C, C47A, G49C, A51G
B19: target 3 U2A,A12U (mixed)
RNA 1: B5 RNA 1
RNA 2: B6 RNA 2 with A32U, C33G, U34A, A40U, U50A
B20: target 3 C6A,A9G (mixed)
RNA 1: B5 RNA 1
RNA 2: B6 RNA 2 with A32U, C33G, U34A, A43G, C46A
B21: target 3 C1G,U2A (mixed)
RNA 1: B5 RNA 1
RNA 2: B6 RNA 2 with A32U, C33G, U34A, U50A, C51G
B22: target 3 C1G,U8A (mixed)
RNA 1: B5 RNA 1
RNA 2: B6 RNA 2 with A32U, C33G, U34A, U44A, C51G
B23: target 3 A5U,U8G (mixed)
RNA 1: B5 RNA 1
RNA 2: B6 RNA 2 with A32U, C33G, U34A, U44G, A47U
B24: target 3 G4C,U8A (mixed)
RNA 1: B5 RNA 1
RNA 2: B6 RNA 2 with A32U, C33G, U34A, U44A, G48C
B25: target 3 insG 3' of 2,insA 3' of 1 (mixed)
RNA 1: B5 RNA 1
RNA 2: B5 RNA 2 with A45U, U46C, C47A, A48G, G50U, A51G, U52C, C53A
B26: target 3 insU 3' of 22,insU 3' of 13 (mixed)
RNA 1: B5 RNA 1
RNA 2: GGGAAUGGAUCCACAUCUACGAAUUCGUUUUUUGAUCUGAUAAUAUUCAGGUCUGCAGAUCGGAAGAGCACACGU
B27: target 3 insU 3' of 22,insU 3' of 3 (mixed)
RNA 1: B5 RNA 1
RNA 2: B26 RNA 2 with U41A, A43U, U44A, A45U, U47C, C48A, A49G, G51U
B28: target 3 U7C,U8G (mixed)
RNA 1: B5 RNA 1
RNA 2: B6 RNA 2 with A32U, C33G, U34A, U44G, U45C
B29: target 3 insC 3' of 11,insG 3' of 2 (mixed)
RNA 1: B5 RNA 1
RNA 2: B5 RNA 2 with U42C, A43U, U44A, A45U, A51U, U52G
B30: target 3 A5U,C6A (mixed)
RNA 1: B5 RNA 1
RNA 2: B6 RNA 2 with A32U, C33G, U34A, C46A, A47U
B31: target 3 insG 3' of 6,insA 3' of 3 (mixed)
RNA 1: B5 RNA 1
RNA 2: B5 RNA 2 with A45U, U46C, C47G
B32: target 3 insU 3' of 16,insC 3' of 3 (mixed)
RNA 1: B5 RNA 1
RNA 2: B5 RNA 2 with G38U, A39G, U42A, A43U, U44A, A45U, A51C

Molecular target: T1, EsCas13d, nuclease-dead
Assay: crRNA (strand 1, pre-loaded); Mg2+; 40 mM Tris-HCl pH 7.5, 150 mM NaCl, 6 mM MgCl2, 1 mM DTT, 0.1% Tween-20, 0.2 mg/ml BSA; 25 C; 10 min per concentration, then washed
Conditions: tags: His6-TwinStrep-SUMO cleaved; N-terminal SNAP kept (SNAP-Surface 488); label: 3' end held by stalled T7 RNA polymerase

Binder | Kd [nM]
B1 | 55 ± 18
B2 | 11.5 ± 0.9
B3 | 3.54 ± 0.28
B4 | 49 ± 9
B5 | 73 ± 18.5
B6 | 26.1 ± 5.05
B7 | ~91
B8 | 23.1 ± 3.7
B9 | 25.9 ± 4
B10 | 86 ± 24
B11 | 20.2 ± 2.4
B12 | 82.5 ± 14
B13 | 97 ± 29
B14 | 67 ± 26
B15 | 26.6 ± 3
B16 | 89 ± 14.5

Binder | Kd [nM]
B17 | 59.5 ± 17.5
B18 | 7.3 ± 0.55
B19 | 79 ± 17
B20 | 59.5 ± 13
B21 | 4.6 ± 0.7
B22 | 45.5 ± 15.5
B23 | 92.5 ± 16.5
B24 | 71.5 ± 10
B25 | 54.2 ± 6.65
B26 | 71 ± 33
B27 | 27.2 ± 4.15
B28 | 73.5 ± 12.5
B29 | 54 ± 14
B30 | 29.9 ± 2.7
B31 | 10.4 ± 1.15
B32 | 64.5 ± 10
